# Measured values from publication PMC7477951 (Structure (London, England : 1993), 2019).
# B1: human HVEM (L39-C162) expressed in Drosophila S2 cells (receptor, UniProt Q92956 39-162, looked up)
# chain: LPSCKEDEYPVGSECCPKCSPGYRVKEACGELTGTVCEPCPPGTYIAHLNGLSKCLQCQMCDPAMGLRASRNCSRTENAVCGCSPGHFCIVQDGDHCAACRAYATSSPGQRVQKGGTESQDTLC
# B2: CD160 part of the single-chain human CD160-HVEM (sc_CD160:HVEM) (domain or fragment)
# chain: INITSSASQEGTRLNLICTVWHKKEEAEGFVVFLCKDRSGDCSPETSLKQLRLKRDPGIDGVGEISSQLMFTISQVTPLHSGTYQCCARSQKSGIRLQGHFFSILFTETGNYTVTGLK
# modifications: glycosylated
# Experiments:
# [1] = target: human HVEM (L39-C162) expressed in Drosophila S2 cells (human) (UniProt Q92956); test: SPR
# [2] = target: human LIGHT (L83-V240) expressed in Drosophila S2 cells (human, UniProt O43557 83-240); test: SEC
# human LIGHT (L83-V240) expressed in Drosophila S2 cells, sequence (O43557 83-240): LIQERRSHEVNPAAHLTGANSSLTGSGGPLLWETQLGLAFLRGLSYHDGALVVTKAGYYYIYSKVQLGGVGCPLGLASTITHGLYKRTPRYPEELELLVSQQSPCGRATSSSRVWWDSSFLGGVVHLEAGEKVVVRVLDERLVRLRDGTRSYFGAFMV
# [3] = target: T1, HVEM part of the single-chain human CD160-HVEM (sc_CD160:HVEM) (human, UniProt Q92956 39-143); test: crystal structure
# T1 sequence: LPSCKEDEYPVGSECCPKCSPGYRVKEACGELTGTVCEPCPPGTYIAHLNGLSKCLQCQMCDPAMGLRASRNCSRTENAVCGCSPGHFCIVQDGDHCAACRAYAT
Molecule,Kd [1],other results
human CD160 ectodomain (I27-L158) expressed in Drosophila S2 cells (from UniProt O95971 27-158) (domain or fragment),6.7 µM,–
refolded human CD160 ectodomain (residues I27-K144) (from UniProt O95971 27-144) (domain or fragment),7.1 µM,–
B1,–,binding result [2]: binds
B2,–,stoichiometry N [3]: 1
